Measurements: US20190389958A1, “ANTI-CXCR4 ANTIBODIES” (MSM Protein Technologies, Inc., priority 2017, published 2019)

Molecular target: human CXCR4 (human) (UniProt P61073)
Assay: flow cytometry, IgG 10 µg/mL, CXCR4-expressing Ramos (RA1) cells

Sequence of human CXCR4 (human) (P61073 whole entry): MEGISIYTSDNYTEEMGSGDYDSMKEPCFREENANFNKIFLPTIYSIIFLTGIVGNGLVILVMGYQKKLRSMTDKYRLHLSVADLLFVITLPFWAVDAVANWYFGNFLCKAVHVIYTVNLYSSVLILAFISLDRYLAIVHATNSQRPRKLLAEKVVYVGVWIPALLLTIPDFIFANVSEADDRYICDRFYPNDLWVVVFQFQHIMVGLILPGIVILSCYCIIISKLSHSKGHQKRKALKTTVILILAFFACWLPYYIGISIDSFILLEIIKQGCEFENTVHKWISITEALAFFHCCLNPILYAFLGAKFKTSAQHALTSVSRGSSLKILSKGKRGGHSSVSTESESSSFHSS

- MFI: 42
Substance: human isotypic IgG1 kappa control (Coger Sarl, Paris, France) (antibody)
